Results reported in patent publication US20120134979A1, “METHODS AND COMPOSITIONS FOR THE TREATMENT OF SICKLE CELL DISEASE” (priority 2010, published 2012).

System: SCD Tg mice
Assay: Life span of RBCs in SCD Tg mice (in vivo biotin labelling)
Design: species or system mouse
Protocol: Measurement of life span of RBCs in SCD Tg mice. SCD Tg mice were treated with or without PEG ? ADA (2.5 unit/week) for 8 weeks. At 6 week-treatment, RBCs were labeled in vivo by using N-hydroxysuccinimide (NHS) biotin and the life span of circulating red blood cells was measured as described (Perumbeti, et al. A novel human gamma-globin gene vector for genetic correction of sickle cell anemia in a humanized sickle mouse model: critical determinants for successful correction. Blood. 2009; 114(6):1174-1185).
Specifically, 50 mg/kg of NHS biotin was injected into the retro-orbital plexus of SCD Tg mice (prepared in 100 μl sterile saline just prior to injection; initially dissolved at 50 mg/ml in N,—N,-dimethylacetamide) Blood samples (only 5 μl) were collected after first day of biotin-injection from tail vein by venipuncture to determine the percentage of RBCs labeled with biotin. Subsequently, 5 μl of blood were obtained by tail vein every 3 days for measurement of biotinylated RBCs until the 10th day. The percentage of biotinylated RBCs was calculated by determining the fraction of peripheral blood cells labeled with Ter-119 (to identify RBCs) that were also labeled with a streptavidin-conjugated fluorochrome by flow cytometry.

B1: PEG-ADA: polyethylene glycol-modified adenosine deaminase, a drug used to lower adenosine concentrations in ADA-deficient humans (protein, UniProt P56658 2-363, looked up)
Adenosine deaminase: AQTPAFNKPKVELHVHLDGAIKPETILYYGRKRGIALPADTPEELQNIIGMDKPLSLPEFLAKFDYYMPAIAGCREAVKRIAYEFVEMKAKDGVVYVEVRYSPHLLANSKVEPIPWNQAEGDLTPDEVVSLVNQGLQEGERDFGVKVRSILCCMRHQPSWSSEVVELCKKYREQTVVAIDLAGDETIEGSSLFPGHVKAYAEAVKSGVHRTVHAGEVGSANVVKEAVDTLKTERLGHGYHTLEDATLYNRLRQENMHFEVCPWSSYLTGAWKPDTEHPVVRFKNDQVNYSLNTDDPLIFKSTLDTDYQMTKNEMGFTEEEFKRLNINAAKSSFLPEDEKKELLDLLYKAYGMPSPASAEQCL
modifications: PEGylated
Chronic treatment vs untreated
  fold increase of half-life of RBCs: 2 fold
Chronic treatment, untreated 2 days
  half-life of RBCs: 96 h
